Results on 2 molecules are retold here after PMC5739537, “Computationally-driven identification of antibody epitopes” (eLife, 2017).

The test has as its target T1, B7H6 (wild type) (human, UniProt Q68D85).
T1 construct: B7H6, human tumor antigen; complete extracellular and transmembrane domains; The results call it the full-length transmembrane protein, the methods complete extracellular and transmembrane domains; also called WT B7H6; WT Ag; source: HEK-293F, transfected (pPPI4 surface expression vector, polyethyleneimine), on the cell surface
Briefly: flow cytometry on cells; HEK-293F cells expressing WT B7H6 or designed variants, 2.5x10^5 cells/well; 100 nM TZ47, PB11 scFv-Fc or NKp30-Ig for 1 hr in PBS + 0.1% BSA; Anti-Mouse-AlexaFluor488 or Anti-Hu-AlexaFluor647 secondary Abs; integrated MFI normalised to NKp30-Ig binding and to WT B7H6; triplicate wells. Particulars: one partner purified.

T1 sequence (Q68D85 25-262): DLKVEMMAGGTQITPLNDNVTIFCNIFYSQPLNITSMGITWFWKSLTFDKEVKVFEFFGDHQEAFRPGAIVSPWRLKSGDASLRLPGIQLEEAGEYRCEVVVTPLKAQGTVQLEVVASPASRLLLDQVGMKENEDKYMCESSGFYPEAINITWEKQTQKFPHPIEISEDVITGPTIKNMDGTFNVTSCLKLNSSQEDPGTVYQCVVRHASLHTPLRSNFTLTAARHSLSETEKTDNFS

B1: TZ47 (antibody, V domains shown)
VH: QVQLQQSGAELMKPGASVKLSCKATGYTFTGYWIEWIKQRPGHGLEWIGEILPGTGSTNYNEKFKGKATFTADTSSNTAYMQLSSLTTEDSAIYYCAIPGPMDYWGQGTSVTVSS
VL: DIKMTQSPSSMYASLGERVTITCKASQDINSYLSWFQQKPGKSPKTLIYRANRLVDGVPSRFSGSGSGQDYSLTISSLEYEDMGIYYCLQYDEFPYTFGGGTKLEIK
notes: Murine antibody; detected with an anti-mouse AlexaFluor488 secondary antibody
Regarding B1, the binding result was “binds”.

B2: PB11 scFv-Fc (scFv, V domains shown)
VH: QVQLVQSGAEVKKPGASVKISCKASGYTLGTYTLHWMRQAPGQRIEWMGWINPGNGYTKYSQRFQGRVTINRDTSATTTYMELSSLRSEDTAVYFCATDRAPVRRAFDIWGQGTMVTVSS
VL: QSVLTQPASVSGSPGQSVTISCTGTSSDIGSYKFVSWYQHHPGKAPKLMIYDVTQRPSGVPYRFSGSKSGNTASLTISGLQAEDEADYYCCSYAGDYTYALFGGGTQLTVL
notes: Used as scFv-Fc in the staining
On to B2, for which the binding result is “binds”.
